# Results taken from patent US20180256699A1.
# Experiments:
# [1] = target: Recombinant soluble murine αMβ2 integrin (R&D Systems) (murine) (UniProt P05555); assay: ELISA, murine αMβ2 integrin coated, ACT serially diluted, with calcium, rabbit anti-ACT detection
# [2] = target: αMβ2 integrin on J774A.1 murine macrophage cells (murine) (UniProt P05555); assay: flow cytometry: biotinylated ACT on J774A.1 cells on ice, no scAb, detected with streptavidin-PE; background: cells only 274, non-biotinylated ACT 292
# [3] = target: Recombinant soluble murine αMβ2 integrin (R&D Systems) (murine) (UniProt P05555); assay: ELISA, murine αMβ2 integrin coated, domain serially diluted, with calcium, rabbit anti-ACT detection
substance,measurement,setting,value
"Bordetella adenylate cyclase toxin (ACT), full-length, acylated (from UniProt J7QLC0 1-1706)",EC50,[1],0.02 µM
same,mean fluorescence (PE-A),[2],4810
"RTX751*, RTX domain of ACT, residues 751-1706, acylated (from UniProt J7QLC0 751-1706)",EC50,[3],0.02 µM
